These results are taken from patent US20260207707A1 (UNIVERSITY OF CHICAGO, published 2026).

Data set [1] has as its target T1, eosinophil cationic protein (ECP), P12724.
T1 chain: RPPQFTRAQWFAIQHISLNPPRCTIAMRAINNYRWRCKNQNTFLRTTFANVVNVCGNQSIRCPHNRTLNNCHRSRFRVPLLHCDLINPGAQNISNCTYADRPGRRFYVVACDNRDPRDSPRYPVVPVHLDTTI

The target in data set [2] is T2, recombinant human C-terminal CD95 (aa 212-335).
T2 chain: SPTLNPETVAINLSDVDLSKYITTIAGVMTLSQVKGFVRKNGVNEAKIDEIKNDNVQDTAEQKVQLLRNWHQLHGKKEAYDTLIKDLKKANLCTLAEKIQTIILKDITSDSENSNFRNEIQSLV

Data set [3] deals with T3, recombinant human N-terminal CD95 (aa 1-173).
T3 chain: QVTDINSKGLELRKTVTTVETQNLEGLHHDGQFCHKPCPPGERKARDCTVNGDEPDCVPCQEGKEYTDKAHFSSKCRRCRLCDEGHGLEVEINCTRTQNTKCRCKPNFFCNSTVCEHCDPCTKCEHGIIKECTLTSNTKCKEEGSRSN

In data set [4] the target is recombinant peptide corresponding to aa 214-231 of human CD95.
Data set [5] deals with recombinant peptide corresponding to aa 317-335 of human CD95.
Data set [6] has as its target T4, neutrophil elastase (ELANE) (human, UniProt P08246 30-247, limits assumed).
T4 construct: Purified ELANE; In the co-immunoprecipitation it is the native protein in human PMN media; also called human ELANE
T4 sequence (looked up): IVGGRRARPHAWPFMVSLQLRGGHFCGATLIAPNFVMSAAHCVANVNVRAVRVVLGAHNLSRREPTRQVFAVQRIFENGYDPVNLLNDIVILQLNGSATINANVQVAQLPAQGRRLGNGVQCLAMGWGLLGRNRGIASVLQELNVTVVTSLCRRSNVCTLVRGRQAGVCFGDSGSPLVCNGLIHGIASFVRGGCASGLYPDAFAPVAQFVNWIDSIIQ
Put plainly: enzyme kinetics: ELANE (10 nM) chromogenic substrate activity with ECP 0-180 nM, curve fitting. How it is done: Catalytic activity was measured using the chromogenic substrate N-Methoxysuccinyl-Ala-Ala-Pro-Val p-nitroanilide (Sigma, 100 μg/mL) according to manufacturer's protocol. Absorbance was measured at 405 nm using an accuSkan GO UV/Vis microplate spectrophotometer (ThermoFisher Scientific). […] Residual PMSF was eliminated with a PD-10 desalting column (GE Healthcare Life).

B1: neutrophil elastase (ELANE) (protein)
chain: IVGGRRARPHAWPFMVSLQLRGGHFCGATLIAPNFVMSAAHCVANVNVRAVRVVLGAHNLSRREPTRQVFAVQRIFENGYDPVNLLNDIVILQLNGSATINANVQVAQLPAQGRRLGNGVQCLAMGWGLLGRNRGIASVLQELNVTVVTSLCRRSNVCTLVRGRQAGVCFGDSGSPLVCNGLIHGIASFVRGGCASGLYPDAFAPVAQFVNWIDSIIQ
B1: the “catalytic turnover (kcat) of ELANE” value in data set [1] is on record as “increases its catalytic turnover (kcat) by ~12-fold”. Also, the “cleavage of recombinant protein (SDS-PAGE, Coomassie blue)” value in data set [2] and in data set [3] was “ELANE preferentially cleaved the C-terminal domain” in each case. For the same molecule, the “cleavage of peptide monitored by mass spectrometry” value in data set [4] and in data set [5] was “studies with synthetic peptides validated these findings” each time.

B2: eosinophil cationic protein (ECP) (other, human, UniProt P12724 28-160, looked up)
chain: RPPQFTRAQWFAIQHISLNPPRCTIAMRAINNYRWRCKNQNTFLRTTFANVVNVCGNQSIRCPHNRTLNNCHRSRFRVPLLHCDLINPGAQNISNCTYADRPGRRFYVVACDNRDPRDSPRYPVVPVHLDTTI
notes: Identified by proteomics in media conditioned by human PMNs
In the case of B2, binding in data set [6] was characterised by a dissociation constant (Kd) of 17 nM.
